Reference: publication PMC7647061, “Expression, purification and characterization of α-synuclein fibrillar specific scFv from inclusion bodies” (PLoS ONE, 2020)

Molecular target: full-length α-syn140 fibrils (Homo sapiens (assumed), UniProt P37840)
Test: far-Western, overlay or dot blot; dot blot: antigen (monomeric or fibrillar) spotted on nitrocellulose in 5 μl, air-dried, blocked in 5% skimmed milk in PBST; scFv-F 5 μg/mL overnight at 4°C; detected by anti-His and HRP secondary antibody
Details: both partners purified

- binding result: binds
B1: single-chain variable fragment (scFv-F) antibody (scFv, V domains shown)
VH: DVQLVESGGGLVQPGGSRKLSCAASGFTFSSFGMHWVRQAPEKGLEWVAYISSGSSTIYYADTVKGRFTISRDNPKNTLFLQMTSLRSEDTAMYYCARGNNPGTGYYYAMDYWGQGTSVTVSS
VL: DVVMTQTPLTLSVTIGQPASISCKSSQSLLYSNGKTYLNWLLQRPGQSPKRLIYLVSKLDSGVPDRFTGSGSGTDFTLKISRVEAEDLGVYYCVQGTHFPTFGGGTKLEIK
notes: VL of mouse monoclonal antibody Syn-F2; (Gly4Ser)3 linker, written out from the printed formula; VH of mouse monoclonal antibody Syn-F2; Order VL-(Gly4Ser)3-VH-6xHis; Final construct is in pET28a; the vector may add residues at the N-terminus (the model's residue numbers Tyr215 and Thr269 hint at a chain longer than VL-linker-VH alone); not shown: His6, C-terminal, kept
